According to patent publication US20160348147A1, “SYSTEMS AND DEVICES FOR PROTEASE DETECTION BASED ON ENGINEERED POLYMERS AND BIOPOLYMERS AND METHODS OF USE” (DUKE UNIVERSITY, priority 2014, published 2016):

Molecular target: ELP-substrate fusion M(GVGVP)60…
Assay: cell-based or functional assay

Sequence of ELP-substrate fusion M(GVGVP)60… (chain, as listed by the source): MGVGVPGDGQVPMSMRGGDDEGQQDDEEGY

aggregation time (optical density versus time), 50 ng/mL MMP-1, without inhibitor: < 50 min
Substance: Human MMP-1 catalytic domain (recombinant, produced in E. coli, 19.9 kDa) (from UniProt P03956 100-269) (enzyme)
